B1: extracellular domain of human DPP4 (residues 39-766), K122D (domain or fragment)
chain: SRKTYTLTDYLKNTYRLKLYSLRWISDHEYLYKQENNILVFNAEYGNSSVFLENSTFDEFGHSINDYSISPDGQFILLEYNYVDQWRHSYTASYDIYDLNKRQLITEERIPNNTQWVTWSPVGHKLAYVWNNDIYVKIEPNLPSYRITWTGKEDIIYNGITDWVYEEEVFSAYSALWWSPNGTFLAYAQFNDTEVPLIEYSFYSDESLQYPKTVRVPYPKAGAVNPTVKFFVVNTDSLSSVTNATSIQITAPASMLIGDHYLCDVTWATQERISLQWLRRIQNYSVMDICDYDESSGRWNCLVARQHIEMSTTGWVGRFRPSEPHFTLDGNSFYKIISNEEGYRHICYFQIDKKDCTFITKGTWEVIGIEALTSDYLYYISNEYKGMPGGRNLYKIQLSDYTKVTCLSCELNPERCQYYSVSFSKEAKYYQLRCSGPGLPLYTLHSSVNDKGLRVLEDNSALDKMLQNVQMPSKKLDFIILNETKFWYQMILPPHFDKSKKYPLLLDVYAGPCSQKADTVFRLNWATYLASTENIIVASFDGRGSGYQGDKIMHAINRRLGTFEVEDQIEAARQFSKMGFVDNKRIAIWGWSYGGYVTSMVLGSGSGVFKCGIAVAPVSRWEYYDSVYTERYMGLPTPEDNLDHYRNSTVMSRAENFKQVEYLLIHGTADDNVHFQQSAQISKALVDVGVDFQAMWYTDEDHGIASSTAHQHIYTHMSHFIKQCFSLP
modifications: glycosylated (sites not given)
B2: extracellular domain of human DPP4 (residues 39-766), P257A (domain or fragment)
chain: SRKTYTLTDYLKNTYRLKLYSLRWISDHEYLYKQENNILVFNAEYGNSSVFLENSTFDEFGHSINDYSISPDGQFILLEYNYVKQWRHSYTASYDIYDLNKRQLITEERIPNNTQWVTWSPVGHKLAYVWNNDIYVKIEPNLPSYRITWTGKEDIIYNGITDWVYEEEVFSAYSALWWSPNGTFLAYAQFNDTEVPLIEYSFYSDESLQYPKTVRVPYAKAGAVNPTVKFFVVNTDSLSSVTNATSIQITAPASMLIGDHYLCDVTWATQERISLQWLRRIQNYSVMDICDYDESSGRWNCLVARQHIEMSTTGWVGRFRPSEPHFTLDGNSFYKIISNEEGYRHICYFQIDKKDCTFITKGTWEVIGIEALTSDYLYYISNEYKGMPGGRNLYKIQLSDYTKVTCLSCELNPERCQYYSVSFSKEAKYYQLRCSGPGLPLYTLHSSVNDKGLRVLEDNSALDKMLQNVQMPSKKLDFIILNETKFWYQMILPPHFDKSKKYPLLLDVYAGPCSQKADTVFRLNWATYLASTENIIVASFDGRGSGYQGDKIMHAINRRLGTFEVEDQIEAARQFSKMGFVDNKRIAIWGWSYGGYVTSMVLGSGSGVFKCGIAVAPVSRWEYYDSVYTERYMGLPTPEDNLDHYRNSTVMSRAENFKQVEYLLIHGTADDNVHFQQSAQISKALVDVGVDFQAMWYTDEDHGIASSTAHQHIYTHMSHFIKQCFSLP
modifications: glycosylated (sites not given)
B3: extracellular domain of human DPP4 (residues 39-766), D243A (domain or fragment)
chain: SRKTYTLTDYLKNTYRLKLYSLRWISDHEYLYKQENNILVFNAEYGNSSVFLENSTFDEFGHSINDYSISPDGQFILLEYNYVKQWRHSYTASYDIYDLNKRQLITEERIPNNTQWVTWSPVGHKLAYVWNNDIYVKIEPNLPSYRITWTGKEDIIYNGITDWVYEEEVFSAYSALWWSPNGTFLAYAQFNDTEVPLIEYSFYSAESLQYPKTVRVPYPKAGAVNPTVKFFVVNTDSLSSVTNATSIQITAPASMLIGDHYLCDVTWATQERISLQWLRRIQNYSVMDICDYDESSGRWNCLVARQHIEMSTTGWVGRFRPSEPHFTLDGNSFYKIISNEEGYRHICYFQIDKKDCTFITKGTWEVIGIEALTSDYLYYISNEYKGMPGGRNLYKIQLSDYTKVTCLSCELNPERCQYYSVSFSKEAKYYQLRCSGPGLPLYTLHSSVNDKGLRVLEDNSALDKMLQNVQMPSKKLDFIILNETKFWYQMILPPHFDKSKKYPLLLDVYAGPCSQKADTVFRLNWATYLASTENIIVASFDGRGSGYQGDKIMHAINRRLGTFEVEDQIEAARQFSKMGFVDNKRIAIWGWSYGGYVTSMVLGSGSGVFKCGIAVAPVSRWEYYDSVYTERYMGLPTPEDNLDHYRNSTVMSRAENFKQVEYLLIHGTADDNVHFQQSAQISKALVDVGVDFQAMWYTDEDHGIASSTAHQHIYTHMSHFIKQCFSLP
modifications: glycosylated (sites not given)

The data set concerns the molecule itself. In words: nonreducing SDS-PAGE.
As to B1, the binding result is recorded as “binds”.

With B2, the binding result is reported as “binds”.

As to B3, the binding result is given as “binds”.

Source of the values: publication PMC8669218 (Acta Pharmacologica Sinica, 2021).
